Laboratory results taken from patent US20200071380A1, “COMBINATION THERAPIES COMPRISING SIRP ALPHA-BASED CHIMERIC PROTEINS” (Shattuck Labs, Inc., priority 2018, published 2020).

Tests used:
FcγR-Ia = FcγR-Ia (Homo sapiens, UniProt P12314); test: SPR binding to FcγR-Ia; conditions: surface plasmon resonance (SPR)
Text: Scale is shown and yellow arrows correspond with each identified monomer. A schematic of the hexamer species is shown to the right, depicting dimerization of the Fc domain and trimerization of the CD40L domain. […] Recombinant hSIRPα-Fc, hCD40L-Fc, and hIgG1 were used as positive controls. […] In both panels, the CHOK1 Parental is on the left and the CHOK1/hCD47 is on the right. […] For both graphs, the CHOK1 Parental is on the bottom. […] In this figure, the control is the top curve, the SIRPα-Fc-CD40L is the middle curve, and the anti-CD47 is the bottom curve.
The extracellular domain (ECD) of SIRPα and the ECD of CD40L were fused via an antibody Fc domain to generate SIRPαECD-Fc-CD40LECD chimeric proteins. When human proteins were used, the chimeric protein is referred to as hSIRPα-Fc-CD40L; when murine proteins were used, the chimeric protein is referred to as and mSIRPα-Fc-CD40L. […] The purified protein was then analyzed for the presence of each individual domain by Western blotting using anti-SIRPα, anti-Fc, and anti-CD40L antibodies (FIG. 3A, bottom). […] Next, binding affinities for SIRPα-Fc-CD40L to recombinant CD47, CD40, or Fc receptors were evaluated by surface plasmon resonance (SPR). […] A functional ELISA evaluated whether SIRPα-Fc-CD40L could outcompete a commercially available single-sided SIRPα-Fc control for binding to recombinant CD47 (FIG. 3H).

FcγR-IIb = target: T1, FcγR-IIb (Homo sapiens, UniProt P31994); test: SPR binding to FcγR-IIb; conditions: surface plasmon resonance (SPR)
T1 sequence (P31994 43-310): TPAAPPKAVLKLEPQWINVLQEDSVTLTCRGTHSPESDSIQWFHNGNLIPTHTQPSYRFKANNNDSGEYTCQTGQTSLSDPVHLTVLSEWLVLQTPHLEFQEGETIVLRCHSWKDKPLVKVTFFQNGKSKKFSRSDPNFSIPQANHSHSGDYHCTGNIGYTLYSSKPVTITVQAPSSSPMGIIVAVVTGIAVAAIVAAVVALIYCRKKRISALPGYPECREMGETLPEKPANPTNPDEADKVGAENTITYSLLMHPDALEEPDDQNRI
Text: (§1) The extracellular domain (ECD) of SIRPα and the ECD of CD40L were fused via an antibody Fc domain to generate SIRPαECD-Fc-CD40LECD chimeric proteins. When human proteins were used, the chimeric protein is referred to as hSIRPα-Fc-CD40L; when murine proteins were used, the chimeric protein is referred to as and mSIRPα-Fc-CD40L. Generically, the chimeric protein is referred to as SIRPα-Fc-CD40L. […] Mammalian cells were then transfected with the hSIRPα-Fc-CD40L expressing construct, and the secreted protein was purified from conditioned media by affinity chromatography. The purified protein was then analyzed for the presence of each individual domain by Western blotting using anti-SIRPα, anti-Fc, and anti-CD40L antibodies (FIG. 3A, bottom). […] The reduced and deglycosylated form of the protein migrated at the predicted monomeric molecular weight of 90.1 kDa. […] Next, binding affinities for SIRPα-Fc-CD40L to recombinant CD47, CD40, or Fc receptors were evaluated by surface plasmon resonance (SPR). […] Finally, to confirm that SIRPα-Fc-CD40L interacted with native CD47 and CD40 in a similar manner to recombinant CD47 and CD40, CHOK1-hCD47 and CHOK1-hCD40 reporter cell lines were developed (FIG. 3F). […] A functional ELISA evaluated whether SIRPα-Fc-CD40L could outcompete a commercially available single-sided SIRPα-Fc control for binding to recombinant CD47 (FIG. 3H).

FcγR-IIIb = FcγR-IIIb (Homo sapiens, UniProt O75015); test: SPR binding to FcγR-IIIb; conditions: surface plasmon resonance (SPR)
FcγR-IIIb, sequence (O75015 17-200): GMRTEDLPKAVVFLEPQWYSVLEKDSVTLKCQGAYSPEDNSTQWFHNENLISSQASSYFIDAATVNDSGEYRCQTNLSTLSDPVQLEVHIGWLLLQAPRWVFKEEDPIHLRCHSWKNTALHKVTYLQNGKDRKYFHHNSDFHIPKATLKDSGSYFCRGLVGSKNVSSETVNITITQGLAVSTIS
Text: as §1

[1] = test system: CD8+ T cell-depleted PBMC; test: Proliferation of CD8+ T cell-depleted PBMC ([3H]-thymidine); type: cell-based, human; conditions: 0.3, 3, 30, or 300 nM; 7-day culture
Description: (§2) Here, proliferation was assessed via [^3H]-Thymidine incorporation on days 5, 6, and 7. The order of samples (in triplicate) along the X-axis is media only, KLH, Exenatide, 0.3 nm SIRPα-Fc-CD40L, 3 nm SIRPα-Fc-CD40L, 30 nm SIRPα-Fc-CD40L and 300 nm SIRPα-Fc-CD40L. […] Here, proliferation was assessed by ELISpot. The order of samples (in triplicate) along the X-axis is media only, KLH, Exenatide, 0.3 nm SIRPα-Fc-CD40L, 3 nm SIRPα-Fc-CD40L, 30 nm SIRPα-Fc-CD40L and 300 nm SIRPα-Fc-CD40L.
(§3) The observation that SIRPα-Fc-CD40L stimulated CD40 signaling prompted investigation of other cellular functions that depend upon CD40 signaling. CD8+ T cell-depleted PBMC were isolated from a total of 33-50 different human donors and cultured in the presence of a dose-titration of hSIRPα-Fc-CD40L (FIG. 6A and FIG. 6B).

[2] = test system: CD8+ T cell-depleted PBMC; test: IL-2 ELISpot of CD8+ T cell-depleted PBMC; type: cell-based, human; conditions: day 8 of the culture
Description: as §2, §3

[3] = Repeat-dose safety and activity study in cynomolgus macaques; type: in vivo; conditions: intravenous infusion every week for five weeks, 0.1, 1, 10 and 40 mg/kg
Description: FIG. 21A-D is a graph showing cynomolgus macaques that were treated with vehicle, or 0.1, 1, 10, and 40 mg/kg of SIRPα-Fc-CD40L. Blood chemistry analysis assessed peripheral erythrocyte counts (FIG. 21A), hemoglobin levels (FIG. 21C), and hematocrit (FIG. 21B). In addition, the fold-change in lymphocyte count from pre-dose to 24 hours post-dose is shown (FIG. 21D).
The experiments of this example tested the safety and activity of the human SIRPα-Fc-CD40L chimeric protein following repeat doses in cynomolgus macaques. Briefly, naïve cynomolgus macaques were administered the human SIRPα-Fc-CD40L chimeric protein by intravenous infusion every week, for five consecutive weeks, at doses of 0.1, 1, 10 and 40 mg/kg. Standard hematology and clinical chemistry parameters were collected before and after each dose.
Receptor occupancy was evaluated on circulating CD40+ lymphocytes.

FcγR-Ia, sequence (P12314 16-374): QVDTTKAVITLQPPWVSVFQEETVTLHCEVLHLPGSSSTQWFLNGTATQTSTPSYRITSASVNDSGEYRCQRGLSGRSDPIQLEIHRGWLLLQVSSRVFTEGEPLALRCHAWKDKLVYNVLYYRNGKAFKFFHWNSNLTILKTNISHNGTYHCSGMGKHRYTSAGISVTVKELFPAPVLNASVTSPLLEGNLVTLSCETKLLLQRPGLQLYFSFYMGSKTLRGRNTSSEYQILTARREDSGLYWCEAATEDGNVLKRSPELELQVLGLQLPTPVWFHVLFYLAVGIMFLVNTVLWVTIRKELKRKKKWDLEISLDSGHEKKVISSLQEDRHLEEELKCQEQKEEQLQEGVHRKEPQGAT

## hSIRPα-Fc-CD40L: Chimeric protein: human SIRPα extracellular domain fused via an antibody Fc domain to human CD40L extracellular domain (SEQ ID NO: 60)
FcγR-Ia
  binding to FcγR-Ia: undetectable binding
FcγR-IIb
  binding to FcγR-IIb: undetectable binding
FcγR-IIIb
  binding to FcγR-IIIb: undetectable binding
[1]
  proliferation of human PBMC: dose-dependent proliferation of human PBMC
[2]
  number of IL-2-secreting PBMC: dose-dependent increase in the number of IL-2-secreting PBMC
[3]
  hemolysis or thrombocytopenia: no evidence of hemolysis or thrombocytopenia
